{
  "source": "the domain aggregation screens of Martell et al. (2025)",
  "assay": "soluble fraction after stress (log2 fold change); higher = more stays soluble; pooled small domains, quantitative proteomics",
  "settings": "stress: 50 degC",
  "method_in_brief": "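Each library was heated to 50°C as a stress step. The libraries, made up of small protein domains, were pooled and analysed at high throughput by quantitative proteomics. The reported value is the base-two logarithm of the fold change in each protein's soluble amount after stress, taken as a measure of aggregation propensity. The higher the value, the more protein stays in solution.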",
  "data": [
    {"sequence": "HMLPLGSNEYETAVIKHLASGVQDADEIQRLTGIDQTSLNTALTMLELAGTIRPLGNNHWTL", "values": [
      {"measurement": "soluble fraction (log2)", "result": 0.167}
    ]},
    {"sequence": "HMLPLHFIEIVSLKKIDTLTKRKELINYAFSKNEKTYIYKLAFKKKSELDNLYKEINLFNEIINIDIRHS", "values": [
      {"measurement": "soluble fraction (log2)", "result": -0.615}
    ]},
    {"sequence": "HMLPLPRFASLDSSEANLRAGPGKDYPILWVYQRKGLPVEIIQEFDTWRRIRDRDGTVGWVQQNLL", "values": [
      {"measurement": "soluble fraction (log2)", "result": -0.405}
    ]},
    {"sequence": "HMLPNIKSEMEILGDNAKARLEAAELWSKKYLSNEAYDTMSKLATTADGVKAIEEIMNITKS", "values": [
      {"measurement": "soluble fraction (log2)", "result": -0.0779}
    ]},
    {"sequence": "HMLPSELLAQQRIVVQPGHNLWRIARATYGRGARYTVIYQANREQIADPNRIFPGQVFALPAA", "values": [
      {"measurement": "soluble fraction (log2)", "result": -0.121}
    ]},
    {"sequence": "HMLPSMENWLGELSFWQTPWWERRDFSTFDNIAQSKEELDEFMSRDDNGAILERMQDPINTIEAE", "values": [
      {"measurement": "soluble fraction (log2)", "result": -0.46}
    ]},
    {"sequence": "HMLQGKVSFFNDEKGYGFIKDNNSKDSYFVHINKVEGEIAEGDKVTFELEKGPKGLVAANVKR", "values": [
      {"measurement": "soluble fraction (log2)", "result": 0.184}
    ]},
    {"sequence": "HMLQIGDEEFIENIVKQVIDENQKAVDDYKKGKEKVMAFLIGQVMKKTKGKVNSEIVEKTIKKL", "values": [
      {"measurement": "soluble fraction (log2)", "result": -0.262}
    ]},
    {"sequence": "HMLQKEVHQQIQQALRALPYHQRTAIVLYYYEGMSVKEIAQATGSMQGTVQSRLFFARKKLRPILESILKK", "values": [
      {"measurement": "soluble fraction (log2)", "result": -0.453}
    ]},
    {"sequence": "HMLQQNRAVEAEQLARKGLSYAQSNIQQAALWRLVAEATEQQGKVDAALNAKNKAMQLEMAG", "values": [
      {"measurement": "soluble fraction (log2)", "result": 0.173}
    ]},
    {"sequence": "HMLRTLSTSEFAEAIGISESSARRLADSGDLRIRRTKGGHRKIPAEEAIRYAREIQATVVRPDLLGLST", "values": [
      {"measurement": "soluble fraction (log2)", "result": 0.0109}
    ]},
    {"sequence": "HMLRVVSTRQAFDIVRGWADAHPQDPEHNKTLDELEELAKKEVWDDWSRTNEIAERLNALLVSIGANVRTA", "values": [
      {"measurement": "soluble fraction (log2)", "result": -0.742}
    ]},
    {"sequence": "HMLSDEEKMAALNEQARQRGFTISPGVLPYLITHYQRDMHSLSMILDALDRYSLQTKRTITLPLLHDLLQQ", "values": [
      {"measurement": "soluble fraction (log2)", "result": -1.06}
    ]},
    {"sequence": "HMLSKEFRFFTYLLESYAQHKNTTAGAVLKTLDEKGLTDFVYKMYDLYHVEAIENAYMDLDSLIATGKPA", "values": [
      {"measurement": "soluble fraction (log2)", "result": -2.98}
    ]},
    {"sequence": "HMLSKGDRVSWDTPQGRTQGEVVEKKTKDFEHDGQKFTASDDDPAFIVKSEKSGAEAAHKGSALNK", "values": [
      {"measurement": "soluble fraction (log2)", "result": 0.0884}
    ]},
    {"sequence": "HMLSLGIMEADMLKTGKHTISGISKATPEQRQKIDSDIEELKKKYPEKNITSKVENDNLIVESGVTAP", "values": [
      {"measurement": "soluble fraction (log2)", "result": 0.278}
    ]},
    {"sequence": "HMLSNKIEQLRKEKGYTFAKLSELSGISTGRLSDLATGKRNNPTMDTLIKLADALDVTLDELVGR", "values": [
      {"measurement": "soluble fraction (log2)", "result": 0.14}
    ]},
    {"sequence": "HMLSNYIGMTLGEAKRNLGQGVNITVNGPNNDNAEVTGQDPTSGSSFDKSKDTITLTT", "values": [
      {"measurement": "soluble fraction (log2)", "result": 0.0581}
    ]},
    {"sequence": "HMLSPAQSLLLRTAARRPDGRVIPPDTLRGGARVKVLTSLLQRGWIEPVDGGHVLTDAGYAAIG", "values": [
      {"measurement": "soluble fraction (log2)", "result": -0.353}
    ]},
    {"sequence": "HMLSTNDYNENKNKLIKDFEIKFIIKHLKLNKGNVAATARSINFHPVSLRQKIAKLGIDVDEVMAG", "values": [
      {"measurement": "soluble fraction (log2)", "result": -1.84}
    ]},
    {"sequence": "HMLSTQEYIKKNIENGSWKVGEKIPSENNLTEILGVSRASIRVAIQQFIALDVLNSIHGKGTFVKTNNIMG", "values": [
      {"measurement": "soluble fraction (log2)", "result": 0.256}
    ]},
    {"sequence": "HMLTALTDREEEILVLLAHNLSNKEIAKRLNLSVNTVRNHTSHIYEKLNVTSRRKAITLAQSLHLLPP", "values": [
      {"measurement": "soluble fraction (log2)", "result": -1.35}
    ]},
    {"sequence": "HMLTAPMPGIVRQVNVDTGQKVRKGQPLMVLEAMKMEHQIIAPQAGKIEAIHYNEGDRVEMGSVLISIF", "values": [
      {"measurement": "soluble fraction (log2)", "result": -0.0961}
    ]},
    {"sequence": "HMLTAPMPGIVTEILVKEGQRVRSGQPLMILEAMKMEHQVTAPKSGQIEKIYFSEGEKVDMGSDLLSIS", "values": [
      {"measurement": "soluble fraction (log2)", "result": 0.181}
    ]},
    {"sequence": "HMLTEEVEISLMDMTKPTQPATIKTTATIQKGATTVMPKQIKMPEGYEFYGNYKMDQPFELTMTFVVKKI", "values": [
      {"measurement": "soluble fraction (log2)", "result": 0.115}
    ]},
    {"sequence": "HMLTGESDNVEKSINKLGTENLALADQTNMGFKGTFINSGHGMAIVVKTGMQTELGKIASMIQIA", "values": [
      {"measurement": "soluble fraction (log2)", "result": 0.21}
    ]},
    {"sequence": "HMLTGISALKPTEAFPDEIFYEIFEIEDNIERTQYIESLRNTARQLKRVTEFNNLYKSFVLDYAQRQKQ", "values": [
      {"measurement": "soluble fraction (log2)", "result": -1.51}
    ]},
    {"sequence": "HMLTKAEEQVMDYLWKLEKAFVKDILDEFPEPKPAYTTVSTMVRILEKKGMVGYTAYGKNHQYYPL", "values": [
      {"measurement": "soluble fraction (log2)", "result": -1.84}
    ]},
    {"sequence": "HMLTKSELVFDTLKKRIIDGELEPGTELVISRISEEFNVSTIPVREAIKTLASEGLVEMEPHKSAKVAE", "values": [
      {"measurement": "soluble fraction (log2)", "result": -0.0631}
    ]},
    {"sequence": "HMLTKSVLGNQIKVLRLEKGLSQEEFGAPVDLSRSAVSQIESGQMYPSLESIGKIVKYYSTSWDNLVG", "values": [
      {"measurement": "soluble fraction (log2)", "result": -0.821}
    ]},
    {"sequence": "HMLTLDEKRRLQIMRVQVALTSLGLYNGRVDGVLNAETKLGLEFFQDLKGLPKSGTMTTPTLNALGVPA", "values": [
      {"measurement": "soluble fraction (log2)", "result": -0.423}
    ]},
    {"sequence": "HMLTLSGPEHAVVRALWPEPELDFDVLIRKTGLPSAQLMTLAMQLEMKKIIRRLPGRRLALMDDIRR", "values": [
      {"measurement": "soluble fraction (log2)", "result": -1.85}
    ]},
    {"sequence": "HMLTRSTVNVETGTAAIGLGKLYGVYDMSRKGLKYSFSVDSDAMTKVMEMLLPLGIKSLTVEPPS", "values": [
      {"measurement": "soluble fraction (log2)", "result": -1.57}
    ]},
    {"sequence": "HMLTTADLMMVHANSNKAIDYIVTDDNTKLTVDEPVTAKWITTADSIYRAVAYYNKVGDGKAQIVSVGN", "values": [
      {"measurement": "soluble fraction (log2)", "result": 0.0204}
    ]},
    {"sequence": "HMLTYPEHVRLRMIELRKTRSLSQSEFGTYLGLSYQTISSLELGRHEWSLAHIQTALLRFELPPNYF", "values": [
      {"measurement": "soluble fraction (log2)", "result": -4.92}
    ]},
    {"sequence": "HMLVATFGPTTGWEGREIIWDVDRFILVGHGAVPAAGVLDYDRRGQLIWAQPELRAWVVEVDRWETG", "values": [
      {"measurement": "soluble fraction (log2)", "result": -1.97}
    ]},
    {"sequence": "HMLVMTDNVIKAINDLLNYEAAAGIKKKQRYTAYQIYKELSEQGVYHGSRRRMEEVVSKLRVERNQI", "values": [
      {"measurement": "soluble fraction (log2)", "result": -2.78}
    ]},
    {"sequence": "HMLVPWKSANLFKLVEPNFRLAERKIPMLPSADREKLQEIMSDMKDAIVDNDKMALMKLDEELTDFLFDFV", "values": [
      {"measurement": "soluble fraction (log2)", "result": -1.22}
    ]}
  ]
}
